# Data taken from the supplement of paper PMC9170038.
# System: MS2 coat protein
# Assay: apparent KD of MS2 coat protein; higher = weaker reporter binding
# Conditions: Eterna round: R107; input ligand: arginine 13.2 mM
# Procedure: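 RNA-MaP round R107: designed RNA switches with theophylline, tryptophan, arginine or FMN aptamers are transcribed on-chip within common flanks. They are titrated with SNAP-549-labelled MS2 coat protein in RNA-MaP buffer (100 mM Tris pH 7.5, 80 mM KCl, 4 mM MgCl2), without ligand or with the indicated ligand. Median apparent KD per design.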
row,Sequence,apparent KD of MS2 coat protein [nM]
1,ACGUUUUAGUCGGCCGCCACUGAUCUCAUGUUCAACAUGAGGAUCACCCAUGUACCUUUUUUUAUCAGGACCGGGACGUAAUAGA [JR_SSTryptoB_Sub005],85
2,GAUCGAAAUAACGCAUAGGAAAACUAUGCGCGAGGACCGGUACGGCCGCCACUCGUCCUCACAUGAGGAUCACCCAUGUACGAUC [#SwitchBubble #CuTurnoff],23.1
3,AGACAUGAGGAUCACCCAUGUAGCACGGAUACCAGAUCCAGAUGUAUCCCUUGGCAGCUGUGGUACAGCGUUGCAACGCUCCUAG [Exclusion - Theophylline A (Freestyle 17)],17.6
4,AGCGACAUGCGUGAUACCAGCUACAUGAGGAUCACCCAUGUAAGUAGGAAACUACUGUGUAGCCCUUGGCAGCAUAGUGCAUGUC [Exclusion - Theophylline B (Freestyle 22)],13.4
5,ACAUGAGGAUCACCCAUGUCACGGCACGAUACCAGCUGAUCCGGUGGCCCUUGGCAGCGUCACGUUUGGUCCCGCGGAUGACACG [klmmullin],29.4
6,AUCGGGCCUUUAGAACCGCCGUUCCCACCUCGAGGACCGGUACGGCCGCCACUCGGGUGACAUGAGGAUCACCCAUGUGGACGAA [Gexebidive],31
7,UGUAUGUGAUCUGAUACCAGUCCAACUGGUAAAACCUGAGGAUCACCCAGGUAAAAUUGGGACCCUUGGCAGCAGAUCGCAUACU,134
8,CCUCAUGUGACGGCCGCCACUGAAGUGAUCGAAACAUGAGGAUCACCCAUGUUACGAUCAGAGAACAGGACCGGGUCAACAUGGG [Try B SS s1],7.46
9,UGGUACAUGGCGGCCGCCACUGGGUUGAAUACCUGAGGAUCACCCUGGUAAAACGCGAAAGCGACUAGGACCGGGUCAUGUACCU,98.8
10,ACAUGAGGAUCACCCAUGUAAGUUUCAGAAGGAGCGUGAAUUAUCACAGGUAGGUCGCUGAAGUUUGCAUAUACUUAUAAAUGUA [JR_ExcArginiA_Sub006],21
11,ACAUGGGUCUGAAGGAGCGCGAUAACAUGAGGAUCACCCAUGUAAAGUGGAACAUGAUAAUCGCAGGUAGGUCGCAGUAAAACCC [#26 Same State - Arginine B],81.6
12,CUACAUUUGUAGAAACCGGUCAACAAUAAUCGAGGACCGGUACGGCCGCCACUCGAUGUGAAAUCACAUGAGGAUCACCCAUGUA [Tryptophan A 18],18.9
13,GGAAAAGAAAGAAAAGAAAUCCCUCCCUCCCGAGGACCGGUACGGCCGCCACUCGCCCUCCCUCCCACAUGAGGAUCACCCAUGU [Exclusion - Trytophan A],23.7
14,GCUGUAAGUGCAGAUACCAGCAAGUGAUAUUUCAUAUGACAUGAGGAUCACCCAUGUAACUGCCCUUGGCAGCUGCACUUACAGC [SSTHB #10],114
15,CACAGUGCGAAAUUGAAACCGCACGAUCCUCGAGGACCGGUACGGCCGCCACUCGCGCGGGUCGUACAUGAGGAUCACCCAUGUC [Zaarmaqu],71.8
16,CUGCCAUGCAGAGAUACCAGUGAGCCCAUAACAUGAGGAUCACCCAUGUACGCCGCAGACCACCCUUGGCAGCUCUGCAUGGCAG [&#$*@],21.7
17,GCAUGUUGGUGGUAUCUGCGAAGGCGGAAUCGAGGACCGGUACGGCCGCCACUCGGCGACAUGAGGAUCACCCAUGUGGUUAGGA [Exclusion - Tryptophan A (Freestyle 8)],18.6
18,CGCACAUGAGGAUCACCCAUGUGAGGGCGACGAGGACCGGUACGGCCGCCACUCGCAAAACAUGAGGAUCACCCAUGUGCCGCCG [SSTA DOUBLE!!! :-D #3],19.7
19,GGCCAUGGAAACAUGGCGGCGGCAUAAGCGCGAGGACCGGUACGGCCGCCACUCGGGCGACAUGAGGAUCACCCAUGUUCCUCAU [ETA NP+V+V2 #23 Same Structure],105

row,Sequence,apparent KD of MS2 coat protein [nM]
1,AUGCGGUGCGGAAGGAGCGAGUUUGCCUAUUUACAUGAGGAUCACCCAUGUCCUAAUGGGACUCAGGUAGGUCGCCGUUGUUGCA [Same State Arginine B GF30],42
2,AGCCGCGUUCUUUCUUUCUUUCUAGCGGCACGAGGACCGGUACGGCCGCCACUCGAAGACAUGAGGAUCACCCAUGUAGUGGGUA [The Second Ring],47.4
3,GCCAGACAUGAGGAUCACCCAUGUAGCGAUACCAGCUCUGUUGUGAGCCCUUGGCAGCGCACUGGCAUCGCGGGUGAUCCUGCAU [(T)''-(Ms2)-(Theo)-(T)'-(M)'-(M)''_Design3],15.1
4,ACAUGAGGAUCACCCAUGUACAUGAGGGAAGGAGCGGUACAUGUGCCAGGUAGGUCGCCCAAGAGCAUCAGCCAUGUACAUCAGC [qasmullin],43.5
5,ACGUUGAAGUCGGCCGCCACUGAUUUCAUGUUCAACAUGAGGAUCACCCAUGUACCUUAUGUUAACAGGACCGGGACGUAUACGA [JR_SSTryptoB_Sub002],264
6,GCUGGACUUUCGGCCGCCACUGAGAGAGUCGUGUGAACAUGAGGAUCACCCAUGUAAUAUAUAUACAGGACCGGGAGGGUUGUGC [4.P],11.2
7,AUACAUGAGGAUCACCCAUGUAUAGAUGAAGGAGCGACCAGAGGGUCAGGUAGGUCGCAUCACAUGAGGAUCACCCAUGUAUCGA [DOUBLE!!! :-D #8],33.6
8,ACAUGAGGAUCACCCAUGUUCCUCAUUGAUACCAGUGAAAGAAGACGCCCUUGGCAGCGAGAAGAAGAAGAAGAAGAAGAAGAGG [6.A],48.4
9,UGUAUGUGAUUUGAUACCAGACCAGCUGGUGGUACUUGAGGAUCACCCAAGUAGGUUUGGGUCCCUUGGCAGCAAAUCGCAUACU [SS Theo B #24 Ms10],165
10,AGAUCUUUCGAAAGAAGGAUCUUGGCUGAUACCAGAGACGAAAGUCUCCCUUGGCAGCAGUGCCAACAUGAGGAUCACCCAUGUA [Theophylline A 13],35
11,CUGCUACAUACGGCCGCCACUUUAAACAUGAGGAUCACCCAUGUACGGAAGGGUGGUAAAUGUUAAAGGACCGGGUAUGUAGCAA [Tryp B Ex t1],64.4
12,GUUACAUGGCAAGCAUGUAUAUGGAUAGAUACCAGUUGAUAUUAAGACCCUUGGCAGCUGAGUACAUGAGGAUCACCCAUGUAAG [Theo A Ex t3],28.4
13,ACAUGAGGAUCACCCAUGUUAAGCACAGAAGGAGCGUGAAGAAACACAGGUAGGUCGCUGUACUUAUCGAGCGUUAGCUCGAUAC [JR_Nu_SSArginiA_Sub029],13.7
14,UAGUAACAUGAGGAUCACCCAUGUCCGGAUACCAGACAUAUACCAGUCCCUUGGCAGCCGCCAGUUAAAAUCUAACACAAAAGUU [theeternabot_sameState_MS2_Theo_A_34],38.8
15,AGAUGAGUCACGGCCGCCACUCACUUCAGGUUCACCCUUGGUUAACAUGAGGAUCACCCAUGUGGGAGGACCGGGUGAUGAGCAU [XTryp B #3],11.8
16,ACUAGUUGUGCAGAUACCAGGCAUGAGGAUCACCCAUGUUUGGGAUGUUCGCAUCUUCCUGUCCCUUGGCAGCUGUACAUCUAGA [Omei Theo B Exc v6],49.9
17,GGGCGCUAUCCCGCGAGGGAUAGCGUUCAACGAGGACCGGUACGGCCGCCACUCGAACGAGUGGGUACAUGAGGAUCACCCAUGU [Haa],19.9
18,GCACGACAUGAGGAUCACCCAUGUGCAGAUACCAGUAAUGUAUAUUACCCUUGGCAGCUGAGUAGAUCUGGAGGGCUAUAGGUAA [Same State Theophylline A GF10],11.5
19,GGACUAACCAGAAGGAGCGGCGCGCAGAAACUGCAAUUUCCUCCACACGAGGAUCACCCGUGUCAGGUAGGUCGCUGGUUAGUCG [ArgBX 29],13.1
